Reference: patent publication US20260234220A1 (OSPEDALE SAN RAFFAELE S R L, published 2026)

Target: S protein of SARS-CoV-1 on pseudotyped particles (SARS-CoV-1, UniProt P59594 14-1255)
Test: cell-based or functional assay

| Binder | neutralizing activity expressed as IC50 µg/ml (pseudovirus, luciferase) [µg/mL] |
| --- | --- |
| IgG BU.7 (antibody, V domains shown) VH: LEWGPGLVKPSETLSLTCTVSGGSISSINYYWVWIRQPPGKGLEWIGNINYSGTTNYNPSLKSRVTISVDTSKNQFSLKLSSVTAADTAVYYCARQTYYYDRRGYYRPEPIEHWGQGTLVTVSS VL: ELVMTQSPSFLSASVGDRVTITCRASQDVRSFLHWYQQRPGKAPKLLIYAASMVSSEVPSRFSGSGSETDFTLTIDGLQPEDVATYFCQQTYDTPLTFGGGTAVDIK | 1.3 |
| IgG BU.54 (antibody, V domains shown) VH: LEWGPGLVKASQTLSLTCTVSGGSISSRNFYWSWIRQPGGKGLEWIGRIYTSGSTNYNPSLKSRVTISLDTSKSQFSLKLSSVTAADTAVYYCARGTFYYDRSGNGRLDPLDYWGQGTLVTVS VL: ELVMTQSPSSLSASVGDRVTITCQASQDISNYLNWYQQKPGKAPKLLIYDASNLETGVPSRFSGSGFGTHFTLTISSLQPEDFATYYCQQHDNLVTFGGGTKVEIK | 0.4 |
